Experimental data from publication PMC8864007 (2022).
Values belong to the binder of their own block, whether it stands above or below them.

What was measured:
[1] = biological target: Human HER4-Fc; assay: ELISA
[2] = biological target: Canine HER2-Fc; assay: ELISA
[3] = biological target: Human EGFR-Fc; assay: ELISA
[4] = biological target: Rat HER2-Fc; assay: ELISA
[5] = biological target: Human HER3-Fc; assay: ELISA
[6] = biological target: Human HER2-His6; assay: ELISA
[7] = biological target: Rhesus HER2-Fc; assay: ELISA
[8] = biological target: Cynomolgus HER2-Fc; assay: ELISA
[9] = biological target: Human IgG Fc; assay: ELISA
[10] = biological target: T1, HER2-Fc protein (human, UniProt P04626 23-652); assay: SPR
[11] = biological target: T2, murine HER2 (murine, UniProt P70424 23-1256); assay: ELISA
T2 chain: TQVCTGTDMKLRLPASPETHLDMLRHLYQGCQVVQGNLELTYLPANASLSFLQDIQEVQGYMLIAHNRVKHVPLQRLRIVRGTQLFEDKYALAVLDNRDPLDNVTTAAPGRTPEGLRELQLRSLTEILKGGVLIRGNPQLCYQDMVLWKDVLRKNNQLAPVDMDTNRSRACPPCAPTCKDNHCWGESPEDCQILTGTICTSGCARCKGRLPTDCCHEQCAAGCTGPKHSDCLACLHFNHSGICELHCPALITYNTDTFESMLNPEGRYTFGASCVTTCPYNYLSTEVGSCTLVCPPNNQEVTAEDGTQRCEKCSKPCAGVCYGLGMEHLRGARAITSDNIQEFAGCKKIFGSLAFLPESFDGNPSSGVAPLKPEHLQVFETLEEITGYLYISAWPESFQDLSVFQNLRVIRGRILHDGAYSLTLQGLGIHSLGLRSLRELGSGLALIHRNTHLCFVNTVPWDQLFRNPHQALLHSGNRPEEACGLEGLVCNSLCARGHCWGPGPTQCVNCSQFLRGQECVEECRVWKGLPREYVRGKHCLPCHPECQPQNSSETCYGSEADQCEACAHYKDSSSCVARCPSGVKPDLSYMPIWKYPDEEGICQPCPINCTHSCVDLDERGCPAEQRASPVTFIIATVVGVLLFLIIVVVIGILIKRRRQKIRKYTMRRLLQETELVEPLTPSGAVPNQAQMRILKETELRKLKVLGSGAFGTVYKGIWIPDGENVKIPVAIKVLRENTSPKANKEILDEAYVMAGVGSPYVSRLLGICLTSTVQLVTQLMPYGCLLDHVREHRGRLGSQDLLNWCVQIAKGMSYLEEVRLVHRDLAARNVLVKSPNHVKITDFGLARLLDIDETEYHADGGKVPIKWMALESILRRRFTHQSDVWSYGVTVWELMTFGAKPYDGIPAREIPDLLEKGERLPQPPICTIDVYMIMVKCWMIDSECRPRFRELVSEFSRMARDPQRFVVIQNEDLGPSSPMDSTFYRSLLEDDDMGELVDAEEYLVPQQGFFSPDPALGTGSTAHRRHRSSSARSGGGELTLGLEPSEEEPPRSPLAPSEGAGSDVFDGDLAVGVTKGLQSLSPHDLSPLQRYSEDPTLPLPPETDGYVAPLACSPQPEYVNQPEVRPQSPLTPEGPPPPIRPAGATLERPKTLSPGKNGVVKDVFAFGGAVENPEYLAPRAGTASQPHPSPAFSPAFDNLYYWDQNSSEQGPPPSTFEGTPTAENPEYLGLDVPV

[12] = biological target: T1, HER2-Fc protein; assay: ELISA

EC50 [1]: > 10 µM
EC50 [2]: 1.09 nM
EC50 [3]: > 10 µM
EC50 [4]: > 10 µM
EC50 [5]: > 10 µM
EC50 [6]: 0.69 nM
EC50 [7]: 1.18 nM
EC50 [8]: 1.19 nM
EC50 [9]: > 10 µM
koff [10]: 0.000718 s⁻¹
EC50 [11]: > 10 µM
EC50 [12]: 0.77 nM
B1: VHH_1028 (VHH)
VHH: EVQLVESGGGLVQAGGSLRLSCAASGITFSINTMGWYRQAPGKQRELVALISSIGDTYYADSVRGRFTISRDNAKNTVYLQMNSLKPEDTAVYYCKRFRTAAQGTDYWGQGTQVTVSS

koff [10]: 0.00071 s⁻¹
B2: iso-SGMIB-VHH_1028 (VHH)
VHH: B1 VHH
modifications: one iso-SGMIB (non-radioactive) conjugated, mono-substituted; site not stated
